Laboratory results published in US20140058068A1 (UNIVERSITY OF MIAMI, published 2014).
Blank lines part the entries; values can stand above or below the molecule they belong to. Square brackets hold non-standard residues; d marks the D form. Ends that are not written are not given here. * marks the point of attachment. Desaminotyrosyl = O=C(CCc1ccc(O)cc1)*; NMeY = CN[C@@H](Cc1ccc(O)cc1)C(=O)O; hArg = N=C(N)NCCCC[C@H](N)C(=O)O; Agmatine = N=C(N)NCCCCN*; Nle = CCCC[C@H](N)C(=O)O; Orn = NCCC[C@H](N)C(=O)O; Abu = CC[C@H](N)C(=O)O; GABA = NCCCC(=O)O

Key:
[1] = molecular target: GHRH receptor of human pituitary membrane homogenates (human) (UniProt Q02643); assay: radioligand competition, [His1,125I-Tyr10,Nle27]hGHRH(1-32)NH2 (0.2 nM) as competitor, human pituitary membrane homogenates
[2] = molecular target: GHRH receptor of human pituitary membrane homogenates (human) (UniProt Q02643); assay: radioligand competition, 125I-JV-1-42 (~0.2 nM) as competitor, human pituitary membrane homogenates
[3] = molecular target: GHRH receptor of human pituitary membrane homogenates (human) (UniProt Q02643); assay: as above; remark: listed apart in the source
[4] = molecular target: T1, GHRH receptor of human pituitary membrane homogenates (human, UniProt Q02643 23-423); assay: radioligand competition, [His1,125I-Tyr10,Nle27]hGHRH(1-32)NH2 (0.2 nM) as competitor, human pituitary membrane homogenates
T1 construct: whole, on cells; Native receptor in pituitary membrane homogenates, not intact cells; also called hGH-RH receptor
T1 sequence (looked up): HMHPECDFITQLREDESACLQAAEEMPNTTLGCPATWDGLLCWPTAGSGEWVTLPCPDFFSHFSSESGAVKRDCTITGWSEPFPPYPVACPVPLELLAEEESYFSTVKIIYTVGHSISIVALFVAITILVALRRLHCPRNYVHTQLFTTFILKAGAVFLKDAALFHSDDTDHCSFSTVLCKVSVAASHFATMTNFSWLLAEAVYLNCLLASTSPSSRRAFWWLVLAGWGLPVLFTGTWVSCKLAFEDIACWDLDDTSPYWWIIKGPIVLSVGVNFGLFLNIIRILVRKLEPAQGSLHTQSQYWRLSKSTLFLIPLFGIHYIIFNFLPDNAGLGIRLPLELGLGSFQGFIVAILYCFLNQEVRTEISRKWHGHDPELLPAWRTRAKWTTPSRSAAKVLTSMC
Excerpt: Normal human pituitaries were purchased from the National Hormone and Peptide Program (A. F. Parlow, Los Angeles, County Harbor—UCLA Medical Center, Torrance, Calif.).

[5] = molecular target: T1, GHRH receptor of human pituitary …; assay: radioligand competition, 125I-JV-1-42 (~0.2 nM) as competitor, human pituitary membrane homogenates
Experimental: (§1) Normal human pituitaries were purchased from the National Hormone and Peptide Program (A. F. Parlow, Los Angeles, County Harbor-UCLA Medical Center, Torrance, Calif.).
The final binding affinities were expressed as IC₅₀ values and were calculated by using the LIGAND PC computerized curve-fitting program of Munson and Rodbard as modified by McPherson.

[6] = molecular target: T1, GHRH receptor of human pituitary …; assay: as above; remark: listed apart in the source
Excerpt: as §1

Molecule: [Dat^1, D-Ala^2, Gln^8, Orn^12, Abu^15, Orn^21, Nle^27, Asp^28, Amc^30]hGH-RH(1-30)NH2 (from UniProt P01286 32-61) (peptide)
IC50 [1]: 0.08 nM
Relative affinity (Binding potency) vs GHRH (fold, GHRH(1-29) = 1) [1]: 74
Relative affinity (Binding potency) vs JI-38 (fold, JI-38 = 1) [1]: 24.4

Molecule: [Dat^1, D-Ala^2, Fpa5^6, Orn^12, Abu^15, Orn^21, Nle^27, Gab^30]hGH-RH(1-30)NH2 (from UniProt P01286 32-61) (peptide)
IC50 [2]: 0.07 nM
Relative affinity (Binding potency) vs GHRH (fold, GHRH(1-29) = 1) [2]: 58
Relative affinity (Binding potency) vs JI-38 (fold, JI-38 = 1) [2]: 24.4
IC50 [3]: 0.33 nM
Relative affinity (Binding potency) vs JI-38 (fold, JI-38 = 1) [3]: 13.2

B2: [N-Me-Tyr^1, Gln^8, Orn^12, Abu^15, Orn^21, Nle^27, Asp^28, Agm^29]hGH-RH(1-29) (peptide)
peptide: [NMeY]ADAIFTQSYR[Orn]VL[Abu]QLSAR[Orn]LLQDI[Nle]D[Agmatine]
notes: also called P20356
IC50 [5]: 0.01 nM
Relative affinity (Binding potency) vs GHRH [5]: 406 fold, GHRH(1-29) = 1
Relative affinity (Binding potency) vs JI-38 [5]: 171 fold, JI-38 = 1
IC50 [6]: 0.27 nM
Relative affinity (Binding potency) vs JI-38 [6]: 16.1 fold, JI-38 = 1

B3: [Dat^1, D-Ala^2, Ala^8, Orn^12, Abu^15, Orn^21, Nle^27, Asp^28, Har^30]hGH-RH(1-30)NH2 (peptide)
chain: [Desaminotyrosyl][dA]DAIFTASYR[Orn]VL[Abu]QLSAR[Orn]LLQDI[Nle]DR[hArg]-NH2
SMILES: CCCC[C@H](NC(=O)[C@@H](NC(=O)[C@H](CC(=O)O)NC(=O)[C@H](CCC(N)=O)NC(=O)[C@H](CC(C)C)NC(=O)[C@H](CC(C)C)NC(=O)[C@H](CCCN)NC(=O)[C@H](CCCNC(=N)N)NC(=O)[C@H](C)NC(=O)[C@H](CO)NC(=O)[C@H](CC(C)C)NC(=O)[C@H](CCC(N)=O)NC(=O)[C@H](CC)NC(=O)[C@H](CC(C)C)NC(=O)[C@@H](NC(=O)[C@H](CCCN)NC(=O)[C@H](CCCNC(=N)N)NC(=O)[C@H](Cc1ccc(O)cc1)NC(=O)[C@H](CO)NC(=O)[C@H](C)NC(=O)[C@@H](NC(=O)[C@H](Cc1ccccc1)NC(=O)[C@@H](NC(=O)[C@H](C)NC(=O)[C@H](CC(=O)O)NC(=O)[C@@H](C)NC(=O)CCc1ccc(O)cc1)[C@@H](C)CC)[C@@H](C)O)C(C)C)[C@@H](C)CC)C(=O)N[C@@H](CC(=O)O)C(=O)N[C@@H](CCCNC(=N)N)C(=O)N[C@@H](CCCCNC(=N)N)C(N)=O
IC50 [4]: 0.04 nM
Relative affinity (Binding potency) vs GHRH [4]: 148 fold, GHRH(1-29) = 1
Relative affinity (Binding potency) vs JI-38 [4]: 48.7 fold, JI-38 = 1

Next, values leading:

IC50 [2]: 0.04 nM
Relative affinity (Binding potency) vs GHRH (fold, GHRH(1-29) = 1) [2]: 102
Relative affinity (Binding potency) vs JI-38 (fold, JI-38 = 1) [2]: 42.7
IC50 [3]: 0.52 nM
Relative affinity (Binding potency) vs JI-38 (fold, JI-38 = 1) [3]: 8.37
Molecule: [Dat^1, D-Ala^2, Gln^8, Orn^12, Abu^15, Orn^21, Nle^27, Asp^28, Agm^29]hGH-RH(1-29) (from UniProt P01286 32-60) (peptide)

IC50 [4]: 0.07 nM
Relative affinity (Binding potency) vs GHRH [4]: 84.5 fold, GHRH(1-29) = 1
Relative affinity (Binding potency) vs JI-38 [4]: 27.8 fold, JI-38 = 1
B1: [Dat^1, D-Ala^2, Thr^8, Orn^12, Abu^15, Orn^21, Nle^27, Asp^28, Har^30]hGH-RH(1-30)NH2 (peptide)
chain: [Desaminotyrosyl][dA]DAIFTTSYR[Orn]VL[Abu]QLSAR[Orn]LLQDI[Nle]DR[hArg]-NH2
SMILES: CCCC[C@H](NC(=O)[C@@H](NC(=O)[C@H](CC(=O)O)NC(=O)[C@H](CCC(N)=O)NC(=O)[C@H](CC(C)C)NC(=O)[C@H](CC(C)C)NC(=O)[C@H](CCCN)NC(=O)[C@H](CCCNC(=N)N)NC(=O)[C@H](C)NC(=O)[C@H](CO)NC(=O)[C@H](CC(C)C)NC(=O)[C@H](CCC(N)=O)NC(=O)[C@H](CC)NC(=O)[C@H](CC(C)C)NC(=O)[C@@H](NC(=O)[C@H](CCCN)NC(=O)[C@H](CCCNC(=N)N)NC(=O)[C@H](Cc1ccc(O)cc1)NC(=O)[C@H](CO)NC(=O)[C@@H](NC(=O)[C@@H](NC(=O)[C@H](Cc1ccccc1)NC(=O)[C@@H](NC(=O)[C@H](C)NC(=O)[C@H](CC(=O)O)NC(=O)[C@@H](C)NC(=O)CCc1ccc(O)cc1)[C@@H](C)CC)[C@@H](C)O)[C@@H](C)O)C(C)C)[C@@H](C)CC)C(=O)N[C@@H](CC(=O)O)C(=O)N[C@@H](CCCNC(=N)N)C(=O)N[C@@H](CCCCNC(=N)N)C(N)=O

IC50 [5]: 0.05 nM
Relative affinity (Binding potency) vs GHRH [5]: 81.2 fold, GHRH(1-29) = 1
Relative affinity (Binding potency) vs JI-38 [5]: 34.2 fold, JI-38 = 1
IC50 [6]: 0.86 nM
Relative affinity (Binding potency) vs JI-38 [6]: 5.06 fold, JI-38 = 1
B4: [Dat^1, D-Ala^2, Orn^12, Abu^15, Orn^21, Nle^27, Gln-Gab^30]hGH-RH(1-30)NH2 (peptide)
peptide: [Desaminotyrosyl][dA]DAIFTNSYR[Orn]VL[Abu]QLSAR[Orn]LLQDI[Nle]SRQ[GABA]-NH2
SMILES: CCCC[C@H](NC(=O)[C@@H](NC(=O)[C@H](CC(=O)O)NC(=O)[C@H](CCC(N)=O)NC(=O)[C@H](CC(C)C)NC(=O)[C@H](CC(C)C)NC(=O)[C@H](CCCN)NC(=O)[C@H](CCCNC(=N)N)NC(=O)[C@H](C)NC(=O)[C@H](CO)NC(=O)[C@H](CC(C)C)NC(=O)[C@H](CCC(N)=O)NC(=O)[C@H](CC)NC(=O)[C@H](CC(C)C)NC(=O)[C@@H](NC(=O)[C@H](CCCN)NC(=O)[C@H](CCCNC(=N)N)NC(=O)[C@H](Cc1ccc(O)cc1)NC(=O)[C@H](CO)NC(=O)[C@H](CC(N)=O)NC(=O)[C@@H](NC(=O)[C@H](Cc1ccccc1)NC(=O)[C@@H](NC(=O)[C@H](C)NC(=O)[C@H](CC(=O)O)NC(=O)[C@@H](C)NC(=O)CCc1ccc(O)cc1)[C@@H](C)CC)[C@@H](C)O)C(C)C)[C@@H](C)CC)C(=O)N[C@@H](CO)C(=O)N[C@@H](CCCNC(=N)N)C(=O)N[C@@H](CCC(N)=O)C(=O)NCCCC(N)=O
notes: T0009 prints Asn^s for Asn^8; also called P29702
